From patent US20090311265A1 come the findings set out here.

The assay concerns the target HA of BPL-inactivated virus preparation of strain A/New Caledonia/20/99 (H1N1) (influenza A virus A/New Caledonia/20/99 (H1N1)). Briefly: ELISA, coated inactivated virus, IgG 5 µg/ml.

The substance CR3014 (antibody) showed an OD 492 nm of 0.09 OD 492 nm.

On to CR6261 (antibody), for which the OD 492 nm worked out at 1.46 OD 492 nm.
